According to patent publication US10941182 (Amgen, dated 2021):
Starred links: 1 amine or outer side, 2 acyl side, 3 side chain; linkers in the order of their positions; H or OH if unused. Non-standard residues stand in square brackets, D forms with d. *: point of attachment. AC4Abu = α-carboxy-4-aminobutyric acid, O=C(C(CCN[*:1])C(=O)[*:3])[*:2]; Oic = O=C(O)[C@@H]1C[C@@H]2CCCC[C@@H]2N1; Phe(4-Cl) = N[C@@H](Cc1ccc(Cl)cc1)C(=O)O; dPhe(4-Cl) = N[C@H](Cc1ccc(Cl)cc1)C(=O)O; γGlu = O=C(O)[C@H](CCC(=O)[*:2])N[*:1]; 2Nal = N[C@@H](Cc1ccc2ccccc2c1)C(=O)O; NMeR = CN[C@@H](CCCNC(=N)N)C(=O)O; Tridecanoyl = CCCCCCCCCCCCC(=O)*; hArg = N=C(N)NCCCC[C@H](N)C(=O)O; 3Pal = N[C@@H](Cc1cccnc1)C(=O)O; Cha = N[C@@H](CC1CCCCC1)C(=O)O; αMeL = CC(C)C[C@](C)(N)C(=O)O; β3hL = CC(C)C[C@H](N)CC(=O)O; β3hP = O=C(O)C[C@@H]1CCCN1; Nle = CCCC[C@H](N)C(=O)O; AEEA = NCCOCCOCC(=O)O; βAla = NCCC(=O)O; BLys = β-lysine

T1: human APJ receptor (human, UniProt P35414 1-380)
T1 sequence (looked up): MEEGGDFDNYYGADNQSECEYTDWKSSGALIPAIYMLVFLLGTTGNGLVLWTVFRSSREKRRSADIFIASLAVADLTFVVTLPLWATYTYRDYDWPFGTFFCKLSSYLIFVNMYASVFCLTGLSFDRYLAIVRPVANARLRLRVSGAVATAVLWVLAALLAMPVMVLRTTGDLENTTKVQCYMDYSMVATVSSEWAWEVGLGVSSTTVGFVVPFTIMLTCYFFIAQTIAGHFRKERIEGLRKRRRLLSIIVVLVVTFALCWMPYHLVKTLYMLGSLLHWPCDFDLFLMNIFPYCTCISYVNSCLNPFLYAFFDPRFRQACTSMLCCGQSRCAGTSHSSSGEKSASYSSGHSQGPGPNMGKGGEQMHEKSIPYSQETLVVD

T2: rat APJ receptor (rat, UniProt Q9JHG3 1-377)
T2 sequence (looked up): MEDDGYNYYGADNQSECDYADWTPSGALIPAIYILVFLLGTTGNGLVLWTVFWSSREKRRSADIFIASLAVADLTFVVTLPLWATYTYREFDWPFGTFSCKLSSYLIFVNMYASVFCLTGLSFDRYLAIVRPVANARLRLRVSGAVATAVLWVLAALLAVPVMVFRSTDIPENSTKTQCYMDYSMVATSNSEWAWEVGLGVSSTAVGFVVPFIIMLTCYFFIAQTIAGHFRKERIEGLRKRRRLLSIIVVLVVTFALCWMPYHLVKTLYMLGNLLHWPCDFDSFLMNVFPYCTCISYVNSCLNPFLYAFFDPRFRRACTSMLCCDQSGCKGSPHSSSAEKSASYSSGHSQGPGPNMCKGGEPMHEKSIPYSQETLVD

B1: Apelin polypeptide SEQ ID NO: 296 (peptide)
peptide: Tridecanoyl-[γGlu][AEEA][AEEA][dQ][hArg]P[NMeR][Cha]SHKG[Oic][Nle][β3hP][dPhe(4-Cl)]-OH
SMILES: CCCCCCCCCCCCC(=O)N[C@@H](CCC(=O)NCCOCCOCC(=O)NCCOCCOCC(=O)N[C@H](CCC(N)=O)C(=O)N[C@@H](CCCCNC(=N)N)C(=O)N1CCC[C@H]1C(=O)N(C)[C@@H](CCCNC(=N)N)C(=O)N[C@@H](CC1CCCCC1)C(=O)N[C@@H](CO)C(=O)N[C@@H](Cc1c[nH]cn1)C(=O)N[C@@H](CCCCN)C(=O)NCC(=O)N1[C@H](C(=O)N[C@@H](CCCC)C(=O)N2CCC[C@H]2CC(=O)N[C@H](Cc2ccc(Cl)cc2)C(=O)O)C[C@@H]2CCCC[C@@H]21)C(=O)O
B2: Apelin polypeptide SEQ ID NO: 359 (peptide)
peptide: Tridecanoyl-[γGlu][AEEA][AEEA]Q[hArg]P[NMeR][αMeL]SHKG[Oic][Nle]P[Phe(4-Cl)]-OH
SMILES: CCCCCCCCCCCCC(=O)N[C@@H](CCC(=O)NCCOCCOCC(=O)NCCOCCOCC(=O)N[C@@H](CCC(N)=O)C(=O)N[C@@H](CCCCNC(=N)N)C(=O)N1CCC[C@H]1C(=O)N(C)[C@@H](CCCNC(=N)N)C(=O)N[C@@](C)(CC(C)C)C(=O)N[C@@H](CO)C(=O)N[C@@H](Cc1c[nH]cn1)C(=O)N[C@@H](CCCCN)C(=O)NCC(=O)N1[C@H](C(=O)N[C@@H](CCCC)C(=O)N2CCC[C@H]2C(=O)N[C@@H](Cc2ccc(Cl)cc2)C(=O)O)C[C@@H]2CCCC[C@@H]21)C(=O)O
B3: Apelin polypeptide SEQ ID NO: 295 (peptide)
peptide: Tridecanoyl-[γGlu][AEEA][AEEA][dQ][hArg]P[NMeR][Cha]SHKG[Oic][Nle][βAla][dPhe(4-Cl)]-OH
SMILES: CCCCCCCCCCCCC(=O)N[C@@H](CCC(=O)NCCOCCOCC(=O)NCCOCCOCC(=O)N[C@H](CCC(N)=O)C(=O)N[C@@H](CCCCNC(=N)N)C(=O)N1CCC[C@H]1C(=O)N(C)[C@@H](CCCNC(=N)N)C(=O)N[C@@H](CC1CCCCC1)C(=O)N[C@@H](CO)C(=O)N[C@@H](Cc1c[nH]cn1)C(=O)N[C@@H](CCCCN)C(=O)NCC(=O)N1[C@H](C(=O)N[C@@H](CCCC)C(=O)NCCC(=O)N[C@H](Cc2ccc(Cl)cc2)C(=O)O)C[C@@H]2CCCC[C@@H]21)C(=O)O
B4: Apelin polypeptide SEQ ID NO: 304 (peptide)
peptide: Tridecanoyl-[γGlu][AEEA][AEEA][dQ][hArg]P[NMeR][Cha]S[βAla]KG[Oic][Nle]P[dPhe(4-Cl)]-OH
SMILES: CCCCCCCCCCCCC(=O)N[C@@H](CCC(=O)NCCOCCOCC(=O)NCCOCCOCC(=O)N[C@H](CCC(N)=O)C(=O)N[C@@H](CCCCNC(=N)N)C(=O)N1CCC[C@H]1C(=O)N(C)[C@@H](CCCNC(=N)N)C(=O)N[C@@H](CC1CCCCC1)C(=O)N[C@@H](CO)C(=O)NCCC(=O)N[C@@H](CCCCN)C(=O)NCC(=O)N1[C@H](C(=O)N[C@@H](CCCC)C(=O)N2CCC[C@H]2C(=O)N[C@H](Cc2ccc(Cl)cc2)C(=O)O)C[C@@H]2CCCC[C@@H]21)C(=O)O
B5: Apelin polypeptide SEQ ID NO: 293 (peptide)
peptide: Tridecanoyl-[γGlu][AEEA][AEEA][dQ][hArg]P[NMeR][Cha]SH[βAla]G[Oic][Nle]P[dPhe(4-Cl)]-OH
SMILES: CCCCCCCCCCCCC(=O)N[C@@H](CCC(=O)NCCOCCOCC(=O)NCCOCCOCC(=O)N[C@H](CCC(N)=O)C(=O)N[C@@H](CCCCNC(=N)N)C(=O)N1CCC[C@H]1C(=O)N(C)[C@@H](CCCNC(=N)N)C(=O)N[C@@H](CC1CCCCC1)C(=O)N[C@@H](CO)C(=O)N[C@@H](Cc1c[nH]cn1)C(=O)NCCC(=O)NCC(=O)N1[C@H](C(=O)N[C@@H](CCCC)C(=O)N2CCC[C@H]2C(=O)N[C@H](Cc2ccc(Cl)cc2)C(=O)O)C[C@@H]2CCCC[C@@H]21)C(=O)O
B6: Apelin polypeptide SEQ ID NO: 473 (peptide)
peptide: Tridecanoyl-[γGlu][AEEA][AEEA]Q[hArg]P[NMeR][αMeL]SHKGP[Nle]P[2Nal]-OH
SMILES: CCCCCCCCCCCCC(=O)N[C@@H](CCC(=O)NCCOCCOCC(=O)NCCOCCOCC(=O)N[C@@H](CCC(N)=O)C(=O)N[C@@H](CCCCNC(=N)N)C(=O)N1CCC[C@H]1C(=O)N(C)[C@@H](CCCNC(=N)N)C(=O)N[C@@](C)(CC(C)C)C(=O)N[C@@H](CO)C(=O)N[C@@H](Cc1c[nH]cn1)C(=O)N[C@@H](CCCCN)C(=O)NCC(=O)N1CCC[C@H]1C(=O)N[C@@H](CCCC)C(=O)N1CCC[C@H]1C(=O)N[C@@H](Cc1ccc2ccccc2c1)C(=O)O)C(=O)O
B7: Apelin polypeptide SEQ ID NO: 302 (peptide)
peptide: Tridecanoyl-[γGlu][AEEA][AEEA][dQ][hArg]P[NMeR][β3hL]SHKG[Oic][Nle]P[dPhe(4-Cl)]-OH
SMILES: CCCCCCCCCCCCC(=O)N[C@@H](CCC(=O)NCCOCCOCC(=O)NCCOCCOCC(=O)N[C@H](CCC(N)=O)C(=O)N[C@@H](CCCCNC(=N)N)C(=O)N1CCC[C@H]1C(=O)N(C)[C@@H](CCCNC(=N)N)C(=O)N[C@H](CC(=O)N[C@@H](CO)C(=O)N[C@@H](Cc1c[nH]cn1)C(=O)N[C@@H](CCCCN)C(=O)NCC(=O)N1[C@H](C(=O)N[C@@H](CCCC)C(=O)N2CCC[C@H]2C(=O)N[C@H](Cc2ccc(Cl)cc2)C(=O)O)C[C@@H]2CCCC[C@@H]21)CC(C)C)C(=O)O
B8: Apelin polypeptide SEQ ID NO: 305 (peptide)
peptide: Tridecanoyl-[γGlu][AEEA][AEEA][dQ][hArg]P[NMeR][Cha]SH[3Pal]G[Oic][Nle]P[dPhe(4-Cl)]-OH
SMILES: CCCCCCCCCCCCC(=O)N[C@@H](CCC(=O)NCCOCCOCC(=O)NCCOCCOCC(=O)N[C@H](CCC(N)=O)C(=O)N[C@@H](CCCCNC(=N)N)C(=O)N1CCC[C@H]1C(=O)N(C)[C@@H](CCCNC(=N)N)C(=O)N[C@@H](CC1CCCCC1)C(=O)N[C@@H](CO)C(=O)N[C@@H](Cc1c[nH]cn1)C(=O)N[C@@H](Cc1cccnc1)C(=O)NCC(=O)N1[C@H](C(=O)N[C@@H](CCCC)C(=O)N2CCC[C@H]2C(=O)N[C@H](Cc2ccc(Cl)cc2)C(=O)O)C[C@@H]2CCCC[C@@H]21)C(=O)O
B9: Apelin polypeptide SEQ ID NO: 294 (peptide)
peptide: Tridecanoyl-[γGlu][AEEA][AEEA][dQ][hArg]P[NMeR][Cha]SHK[βAla][Oic][Nle]P[dPhe(4-Cl)]-OH
SMILES: CCCCCCCCCCCCC(=O)N[C@@H](CCC(=O)NCCOCCOCC(=O)NCCOCCOCC(=O)N[C@H](CCC(N)=O)C(=O)N[C@@H](CCCCNC(=N)N)C(=O)N1CCC[C@H]1C(=O)N(C)[C@@H](CCCNC(=N)N)C(=O)N[C@@H](CC1CCCCC1)C(=O)N[C@@H](CO)C(=O)N[C@@H](Cc1c[nH]cn1)C(=O)N[C@@H](CCCCN)C(=O)NCCC(=O)N1[C@H](C(=O)N[C@@H](CCCC)C(=O)N2CCC[C@H]2C(=O)N[C@H](Cc2ccc(Cl)cc2)C(=O)O)C[C@@H]2CCCC[C@@H]21)C(=O)O
B10: Apelin polypeptide SEQ ID NO: 303 (peptide)
peptide: Tridecanoyl-[AC4Abu][AEEA][AEEA][dQ][hArg]P[NMeR][Cha][βAla]HKG[Oic][Nle]P[dPhe(4-Cl)]-OH
SMILES: CCCCCCCCCCCCC(=O)NCCC(C(=O)O)C(=O)NCCOCCOCC(=O)NCCOCCOCC(=O)N[C@H](CCC(N)=O)C(=O)N[C@@H](CCCCNC(=N)N)C(=O)N1CCC[C@H]1C(=O)N(C)[C@@H](CCCNC(=N)N)C(=O)N[C@@H](CC1CCCCC1)C(=O)NCCC(=O)N[C@@H](Cc1c[nH]cn1)C(=O)N[C@@H](CCCCN)C(=O)NCC(=O)N1[C@H](C(=O)N[C@@H](CCCC)C(=O)N2CCC[C@H]2C(=O)N[C@H](Cc2ccc(Cl)cc2)C(=O)O)C[C@@H]2CCCC[C@@H]21

What follows are binders tested against T1, human APJ receptor (assay: cell-based or functional assay).

Binder	EC50 Human APJ Receptor (GTPγS assay) [nM]
B1	2.75
B2	0.0529
B3	3.29
B4	139
B5	109
B6	0.099
B7	16.5
B8	78
XXXQRPRLSHKGPXPF ({TDA}[AC4Abu][Aeea][Aeea]Q[hArg]P[NMeArg][aMeLeu]SHKGP[Nle]P[4-Cl-F]{COOH}) [Apelin polypeptide SEQ ID NO: 460]	0.0347
B9	> 4170
B10	79.2
Tridecanoyl-[γGlu][AEEA][AEEA][dQ][hArg]P[NMeR][Cha]SH[BLys]G[Oic][Nle]P[dPhe(4-Cl)]-OH [Apelin polypeptide SEQ ID NO: 306]	74.1

The binders below were run against T2, rat APJ receptor (assay: cell-based or functional assay).

Binder	EC50 Rat APJ Receptor (GTPγS assay) [nM]
B1	2.32
B2	0.116
B3	10.4
B4	260
B5	110
B6	0.465
B7	14.3
B8	66.7
XXXQRPRLSHKGPXPF ({TDA}[AC4Abu][Aeea][Aeea]Q[hArg]P[NMeArg][aMeLeu]SHKGP[Nle]P[4-Cl-F]{COOH}) [Apelin polypeptide SEQ ID NO: 460]	0.0628
B9	30.7
B10	74.1
Tridecanoyl-[γGlu][AEEA][AEEA][dQ][hArg]P[NMeR][Cha]SH[BLys]G[Oic][Nle]P[dPhe(4-Cl)]-OH [Apelin polypeptide SEQ ID NO: 306]	136
